Each block holds one substance with its values, some of them ahead of it.
Experiments:
[1] = molecular target: DNA primase PriSL (PriS-PriL heterodimer) from P. abyssi, in solution (Pyrococcus abyssi) (UniProt Q9V292)
[2] = molecular target: Replication Protein A (RPA) heterotrimer from Pyrococcus abyssi, wild type (Pyrococcus abyssi); experiment: BLI; RPA or RPA^ΔWH nucleoprotein filaments on a 3'-TEG-biotin 50-nt ssDNA held on streptavidin sensors; PriSL (1.56-100 nM) or PolD (15.62-1000 nM) in solution; steady-state analysis; 25 °C, buffer E with 0.2 mg/ml BSA
[3] = molecular target: DNA primase PriSL (PriS-PriL heterodimer) from P. abyssi, in solution (Pyrococcus abyssi) (UniProt Q9V292); remark: listed apart in the source

Chain of DNA primase PriSL (PriS-PriL heterodimer) from P. abyssi, in solution (Pyrococcus abyssi) (Q9V292 whole entry, chain 1 of 2): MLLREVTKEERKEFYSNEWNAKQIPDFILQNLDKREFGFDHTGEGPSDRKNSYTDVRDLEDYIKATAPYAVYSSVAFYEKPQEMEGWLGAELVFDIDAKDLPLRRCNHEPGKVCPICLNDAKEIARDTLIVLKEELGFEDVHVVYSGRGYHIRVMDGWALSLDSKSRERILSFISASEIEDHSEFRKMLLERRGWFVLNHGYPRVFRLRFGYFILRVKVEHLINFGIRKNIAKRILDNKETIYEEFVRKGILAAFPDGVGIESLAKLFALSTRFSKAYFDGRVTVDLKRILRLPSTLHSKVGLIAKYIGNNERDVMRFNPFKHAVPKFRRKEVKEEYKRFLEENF
Chain of DNA primase PriSL (PriS-PriL heterodimer) from P. abyssi, in solution (Pyrococcus abyssi) (Q9V291 whole entry, chain 2 of 2, further chain): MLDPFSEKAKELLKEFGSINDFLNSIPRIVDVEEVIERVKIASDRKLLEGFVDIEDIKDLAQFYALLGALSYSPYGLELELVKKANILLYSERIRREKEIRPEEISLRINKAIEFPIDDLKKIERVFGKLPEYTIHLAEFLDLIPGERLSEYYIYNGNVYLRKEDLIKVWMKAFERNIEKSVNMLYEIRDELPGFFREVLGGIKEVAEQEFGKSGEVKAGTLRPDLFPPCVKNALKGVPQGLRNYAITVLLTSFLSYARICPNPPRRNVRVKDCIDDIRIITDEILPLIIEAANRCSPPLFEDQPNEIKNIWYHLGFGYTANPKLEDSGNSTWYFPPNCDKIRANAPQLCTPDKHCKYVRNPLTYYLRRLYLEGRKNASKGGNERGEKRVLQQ

- PriSL primer extension, long products (≥70 nt), with RPA from 0.05 to 0.8 µM [1]: 5 fold
Substance: Replication Protein A (RPA) heterotrimer from Pyrococcus abyssi, wild type (complex)

- Kd [2]: 136 nM
Substance: Replicative DNA polymerase PolD (DP1-DP2 heterodimer) from P. abyssi, in solution (complex)

- PriSL primer extension, reduction in long extension products against wild-type RPA, over the RPA concentrations tested [3]: 45%
Substance: RPA^ala-linker, RPA with all 12 glutamic acid residues of the Rpa2 linker substituted with alanine (complex)

Reference: PMC11686378
